Experimental data published in patent US20250092135A1 (NANJING LEADS BIOLABS, published 2025).

What was measured:
Test in all cases: BLI (ForteBio Octet RED96), antibody on AHC sensor, analyte 100-3.13 nM, 1:1 model
[1] = biological target: T1, Cynomolgus monkey CD3D & CD3E heterodimer protein (cynomolgus monkey, UniProt Q95LI5 22-117; Q95LI8 22-105)
T1 construct: same catalogue number; also called monkey CD3 protein (Acro biosystems, Cat #CDD-C52W4)
Source text: (§1) In this experiment, the binding affinity of the bispecific antibody for the human CD3 protein (Cat #CT038-H2508H, Sinobiological), cynomolgus monkey CD3 protein (Cat #CDD-C52W4, Acrobiosystems), human MUC16 protein (full-length human MUC16, the membrane-proximal end of the extracellular region of MUC16 (Table 26)), and cynomolgus monkey MUC16 protein (full-length cynomolgus monkey MUC16, the membrane-proximal end of the extracellular region of MUC16 (Table 26)) was detected using ForteBio Octet RED96 according to the manufacturer's instructions.
(§2) Briefly, an AHC sensor (ForteBio, Cat #18-5060) was placed in a running buffer (1×PBS, Hyclone, Cat #SH30256.01, containing 0.02% Tween 20, pH 7.0) and pre-equilibrated at room temperature for 10 min. […] The experimental data were fitted and calculated using a Fortebio Data Analysis software 1:1 binding model.

[2] = biological target: T2, Cynomolgus monkey MUC16-His (cynomolgus monkey)
T2 construct: The entry includes the C-terminal 6xHis tag; also called Cynomolgus monkey MUC16 protein
T2 chain: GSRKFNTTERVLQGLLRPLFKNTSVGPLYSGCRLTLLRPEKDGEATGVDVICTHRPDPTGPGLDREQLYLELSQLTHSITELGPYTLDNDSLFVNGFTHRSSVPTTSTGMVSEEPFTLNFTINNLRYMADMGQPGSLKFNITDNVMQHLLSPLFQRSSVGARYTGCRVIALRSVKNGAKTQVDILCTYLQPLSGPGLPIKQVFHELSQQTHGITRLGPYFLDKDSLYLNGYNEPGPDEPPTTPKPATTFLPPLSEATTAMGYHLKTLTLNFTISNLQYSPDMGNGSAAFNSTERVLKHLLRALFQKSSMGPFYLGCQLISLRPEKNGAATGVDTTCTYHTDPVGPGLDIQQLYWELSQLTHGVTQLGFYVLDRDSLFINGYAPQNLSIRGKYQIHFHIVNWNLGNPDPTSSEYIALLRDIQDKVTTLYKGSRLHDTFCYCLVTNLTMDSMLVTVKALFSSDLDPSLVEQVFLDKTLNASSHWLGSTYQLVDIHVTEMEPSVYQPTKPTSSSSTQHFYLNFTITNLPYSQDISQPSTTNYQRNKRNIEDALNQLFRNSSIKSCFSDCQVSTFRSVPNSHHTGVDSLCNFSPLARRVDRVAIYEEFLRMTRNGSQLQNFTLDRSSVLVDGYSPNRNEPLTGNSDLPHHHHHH
Source text: as §1, §2

[3] = biological target: T3, Human CD3D & CD3E heterodimer protein (human, UniProt P07766 23-126; P04234 22-105)
T3 construct: Bought recombinant heterodimer; also called human CD3 protein (Sino Biological, Cat #CT038-H2508H)
T3 sequence (P07766 23-126 limits assumed, chain 1 of 2): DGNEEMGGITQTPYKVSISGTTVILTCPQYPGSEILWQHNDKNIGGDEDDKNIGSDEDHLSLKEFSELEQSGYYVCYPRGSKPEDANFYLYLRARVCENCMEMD
T3 sequence (P04234 22-105 limits assumed, chain 2 of 2): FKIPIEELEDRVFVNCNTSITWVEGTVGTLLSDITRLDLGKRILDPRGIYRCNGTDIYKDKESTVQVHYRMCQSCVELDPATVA
Source text: as §1, §2

Human MUC16-His = biological target: T4, Human MUC16-His (human)
T4 construct: The entry includes the C-terminal 6xHis tag; also called membrane-proximal end of the extracellular region of the human MUC16 protein; Human MUC16 protein
T4 chain: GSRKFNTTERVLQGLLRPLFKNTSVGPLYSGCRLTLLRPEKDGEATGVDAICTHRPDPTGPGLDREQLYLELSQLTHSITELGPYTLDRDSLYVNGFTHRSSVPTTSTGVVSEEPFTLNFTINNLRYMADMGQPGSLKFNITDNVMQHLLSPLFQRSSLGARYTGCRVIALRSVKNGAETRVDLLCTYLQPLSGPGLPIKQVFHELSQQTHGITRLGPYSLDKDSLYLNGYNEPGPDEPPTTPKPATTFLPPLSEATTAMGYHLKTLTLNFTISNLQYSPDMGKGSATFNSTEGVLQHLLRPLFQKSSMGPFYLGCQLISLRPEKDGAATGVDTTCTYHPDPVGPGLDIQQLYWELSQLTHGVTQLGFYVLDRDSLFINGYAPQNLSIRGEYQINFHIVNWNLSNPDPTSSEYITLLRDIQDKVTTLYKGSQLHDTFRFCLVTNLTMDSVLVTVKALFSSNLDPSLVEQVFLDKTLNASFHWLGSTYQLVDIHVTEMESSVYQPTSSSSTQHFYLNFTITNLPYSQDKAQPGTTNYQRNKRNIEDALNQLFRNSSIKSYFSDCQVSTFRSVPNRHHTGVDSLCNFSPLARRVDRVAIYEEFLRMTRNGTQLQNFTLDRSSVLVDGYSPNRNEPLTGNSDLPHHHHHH
Source text: as §1, §2

T1 sequence (Q95LI5 22-117 limits assumed, chain 1 of 2): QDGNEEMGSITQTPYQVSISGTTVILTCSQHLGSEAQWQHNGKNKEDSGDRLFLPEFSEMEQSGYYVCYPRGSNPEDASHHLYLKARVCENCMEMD
T1 sequence (Q95LI8 22-105 limits assumed, chain 2 of 2): as the sequence (P04234 22-105 limits assumed, chain 2 of 2) above, with I5V, N15K, I20V, S32T, D33N, I34N, T64A, S74N, V83L counted along it

Kd [1]: 30.4 nM
koff [1]: 0.00378 s⁻¹
kon [1]: 124000 M⁻¹ s⁻¹
Kd [2]: 2.91 nM
koff [2]: 0.000546 s⁻¹
kon [2]: 188000 M⁻¹ s⁻¹
Kd [3]: 44.3 nM
koff [3]: 0.00933 s⁻¹
kon [3]: 211000 M⁻¹ s⁻¹
Kd (Human MUC16-His): 3.17 nM
koff (Human MUC16-His): 0.000524 s⁻¹
kon (Human MUC16-His): 166000 M⁻¹ s⁻¹
B1: anti-CD3/MUC16 bispecific antibody MCH7-23L2-MCH7 (bispecific antibody, human IgG1, kappa, L234A L235A)
heavy 1: QVQLVQSGAEVKKPGASVKVSCKASGYTFTDYNIHWVRQAPGQGLEWMGYIYPYNGVSDYNQNFKSRVTMTTDTSTSTAYMELRSLRSDDTAVYYCARWDFGSGYYFDYWGQGTLVTVSSASTKGPSVFPLAPSSKSTSGGTAALGCLVKDYFPEPVTVSWNSGALTSGVHTFPAVLQSSGLYSLSSVVTVPSSSLGTQTYICNVNHKPSNTKVDKKVEPKSCEVQLVESGGGLVQPGGSLKLSCAASGFTFSTYAMNWVRQAPGKGLEWVGRIRSKYNNYATYYADSVKDRFTISRDDSKNTLYLQMNSLKTEDTAVYYCTRHGNFGNSYVSWFAYWGQGTTVTVSSGGGGSGGGGSGGGGSQAVVTQEPSLTVSPGGTVTLTCRSSTGAVTTSNYANWVQQKPGQAPRGLIGGTNKRAPGVPARFSGSLLGGKAALTLSGAQPEDEAEYFCALWYSNLWVFGGGTKLTVLGEPKSSDKTHTCPPCPAPEAAGGPSVFLFPPKPKDTLMISRTPEVTCVVVAVSHEDPEVKFNWYVDGVEVHNAKTKPREEQYNSTYRVVSVLTVLHQDWLNGKEYKCKVSNKALAAPIEKTISKAKGQPREPQVCTLPPSRDELTKNQVSLSCAVKGFYPSDIAVEWESNGQPENNYKTTPPVLDSDGSFFLVSKLTVDKSRWQQGNVFSCSVMHEALHNHYTQKSLSLSPGK
heavy 2: not shown
light: EIVLTQSPATLSLSPGERATLSCRASSSVIYMSWYQQKPGQAPRLLIYGTSTLASGIPARFSGSGSGTDFTLTISSLEPEDFAVYYCQQWSSNPFTFGQGTKLEIKRTVAAPSVFIFPPSDEQLKSGTASVVCLLNNFYPREAKVQWKVDNALQSGNSQESVTEQDSKDSTYSLSSTLTLSKADYEKHKVYACEVTHQGLSSPVTKSFNRGEC
notes: MCH7-23L2ScFv-Hole (VH-CH1-scFv-Fc) + MCH7-KIH-Knob + two light chains MCL4 LC
